According to patent US20230120736A1, “ANTI-CD98 ANTIBODIES AND ANTIBODY DRUG CONJUGATES” (AbbVie Inc., priority 2016, published 2023):
Marks after values point to notes of the source that are not given here.

Experiments:
[1] = tested on: NCI-H146 (human small cell lung cancer) xenograft; assay: NCI-H146 xenograft tumor growth inhibition; format: in vivo, mouse; settings: SCID-bg mice
Protocol: The in vivo efficacy of anti-CD98 hybridoma mAb conjugates were tested using Ab3-CZ and Ab5-CZ as examples in NCI-H146 (human small cell lung cancer) xenograft model. […] The cells were cultured as monolayers in RPMI-1640 culture media (Invitrogen, Carlsbad, Calif.) that was supplemented with 10% Fetal Bovine Serum (FBS, Hyclone, Logan, Utah). To generate xenografts, 5×10^6 (NCI-H146) viable cells were inoculated subcutaneously into the right flank of immune deficient female SCID-bg mice (Charles River Laboratories, Wilmington, Mass.). The injection volume was 0.2 mL and composed of Matrigel (BD, Franklin Lakes, N.J.). Tumors were size matched at approximately 212 mm^3. Antibodies and conjugates were formulated in phosphate buffered saline, pH 7.2 and injected intraperitoneally. […] Therapy began within 24 hours after size matching of the tumors. Mice weighed approximately 21 g at the onset of therapy. Tumor volume was estimated two to three times weekly. Measurements of the length (L) and width (W) of the tumor were taken via electronic caliper and the volume was calculated according to the following equation: V=L×W^2/2. Mice were euthanized when tumor volume reached 3,000 mm^3 or skin ulcerations occurred. Eight mice were housed per cage. Food and water were available ad libitum. Mice were acclimated to the animal facilities for a period of at least one week prior to commencement of experiments. Animals were tested in the light phase of a 12-hour light: 12-hour dark schedule (lights on at 06:00 hours). Anti-CD98 conjugates (10 mg/kg) were administered as a single dose (QDx1) intraperitoneally. A human IgG control antibody (MSL109, a humanized IgG1 antibody that binds to cytomegalovirus (CMV) glycoprotein H) was used as a negative control agent.
(§1) To refer to efficacy of therapeutic agents, parameters of amplitude (TGImax), durability (TGD) and response frequency (CR, PR, OR) of therapeutic response are used. The efficacy of inhibition of NCI-H146 xenografts growth with CD98-targeted ADCs is illustrated by Table 6, below. In the tables, to refer to efficacy, parameters of amplitude (TGImax) and durability (TGD) of therapeutic response are used. TGImax is the maximum tumor growth inhibition during the experiment. Tumor growth inhibition is calculated by 100*(1−Tv/Cv) where Tv and Cv are the mean tumor volumes of the treated and control groups, respectively. TGD or tumor growth delay is the extended time of a treated tumor needed to reach a volume of 1 cm^3 relative to the control group. TGD is calculated by 100*(Tt/Ct−1) where Tt and Ct are the median time periods to reach 1 cm^3 of the treated and control groups, respectively. Distribution of the response amplitude in a specific group is given by the frequency of complete responders (CR), partial responders (PR), and overall responders (OR). CR is the percentage of mice within a group with a tumor burden of 25 mm^3 for at least three measurements. PR is the percentage of mice within a group with a tumor burden larger than 25 mm^3 but less than one-half of the volume at onset of treatment for at least three measurements. OR is the sum of CR and PR.
The in vivo anti-tumor efficacy of selected humanized anti-CD98 mAb conjugates were tested in NCI-H146 (human small cell lung cancer) xenograft model, as described in Example 6. Tumor growth inhibition was reported as TGImax in Table 28.

[2] = tested on: HCC38 breast cancer cell line; assay: Growth inhibition assay (CellTiter-Glo); settings: read-out: ADC potency, IC50, HCC38, 4-days treatment, 3000 cells per well
[3] = tested on: Jurkat acute T cell leukemia cell line; assay: Growth inhibition assay (CellTiter-Glo); settings: read-out: ADC potency, IC50, Jurkat, 5-days treatment, 3000 cells per well
[4] = Size exclusion chromatography, % aggregate fraction of ADC; format: physicochemical; settings: hybridoma mAb conjugated with synthon CZ, Method A
Protocol: Size exclusion chromatography was performed using a Shodex KW802.5 column in 0.2M potassium phosphate pH 6.2 with 0.25 mM potassium chloride and 15% IPA at a flow rate of 0.75 ml/min. The peak area absorbance at 280 nm was determined for each of the high molecular weight and monomeric eluents by integration of the area under the curve. The % aggregate fraction of the conjugate sample was determined by dividing the peak area absorbance at 280 nm for the high molecular weight eluent by the sum of the peak area absorbances at […] of the high molecular weight and monomeric eluents multiplied by 100%.

[5] = tested on: EBC-1 (human lung squamous cell carcinoma) xenograft; assay: EBC-1 xenograft tumor growth inhibition; format: in vivo, mouse; settings: SCID-bg mice; for Growth Inhibition TGImax / Response Frequency CR / Response Frequency PR / Tumor growth delay (TGD): 10 mg/kg IP QDx1; for Response Frequency OR: 10 mg/kg IP QDx1, sum of CR and PR
Protocol: as §1, with “The efficacy of inhibition of NCI-H146 xenografts growth with CD98-targeted ADCs is illustrated by Table 6, below.” left out
EBC-1 was obtained from the Japanese Collection of Research Bioresources Cell Bank (JCRB, Osaka, Japan) and were cultured using MEM culture media with 10% FBS. To generate xenografts, 5×10^6 EBC-1 viable cells were inoculated subcutaneously into the right flank of immune deficient female SCID-bg mice (Charles River Laboratories, Wilmington, Mass.). The injection volume was 0.2 mL and the inoculum was composed of 1:1 mixture of S-MEM and Matrigel. Tumors were size matched at approximately 200 mm^3. Antibodies and conjugates were formulated in phosphate buffered saline, pH 7.2 and injected intraperitoneally. […] Therapy began within 24 hours after size matching of the tumors. Mice weighed approximately 21-22 g at the onset of therapy. Tumor volume was estimated two to three times weekly. Measurements of the length (L) and width (W) of the tumor were taken via electronic caliper and the volume was calculated according to the following equation: V=L×W^2/2. Mice were euthanized when tumor volume reached 3,000 mm^3 or skin ulcerations occurred. Eight mice were housed per cage. Food and water were available ad libitum. Mice were acclimated to the animal facilities for a period of at least one week prior to commencement of experiments. Animals were tested in the light phase of a 12-hour light: 12-hour dark schedule (lights on at 06:00 hours). Anti-CD98 conjugates (10 mg/kg) were administered as a single dose (QDx1) intraperitoneally. A human IgG control antibody (AB095, a human IgG1 antibody recognizing tetanus toxoid See Larrick et al., 1992, Immunological Reviews 69-85) was used as a negative control agent.
To refer to efficacy of therapeutic agents, parameters of amplitude (TGImax), durability (TGD) and response frequency (CR, PR, OR) of therapeutic response are used as described in the Example 6.

Molecule | IC50 [2] [nM] | IC50 [3] [nM] | % Aggregates by SEC [4] [%] | also measured
MSL109: "a humanized IgG1 antibody that binds to cytomegalovirus (CMV) glycoprotein H", "negative control agent" [reference compound] | – | – | – | Growth Inhibition TGD ([1]; 10 mg/kg IP QDx1): 0%; Growth Inhibition TGImax ([1]; 10 mg/kg IP QDx1): 0%; Response Frequency CR ([1]; 10 mg/kg IP QDx1): 0%; Response Frequency PR ([1]; 10 mg/kg IP QDx1): 0%; Response Frequency OR ([1]; 10 mg/kg IP QDx1, sum of CR and PR): 0%
Ab10-CZ (conjugate) VH: EVQLVESGGGLVQPGRSLKLSCAASGFTFSDYAMAWVRQAPKKSLEWVATIIYDGRGTYCRDSVKGRFTISRDNAKSTLYLQMDSLRSEDTATYYCARQGDGTYHYWGYFDYWGQGVMVTVSS VL: DIVMTQSPSSLAVSAGETVTINCKSSQSLLSSGNQKNYLAWYQQKPGQSPKLLIYWASTRQSGVPDRFIGSGSGTDFTLTISSVQAEDLAIYYCQQYYDTPYTFGAGTKVDLK | 1.16 | 0.148 | 4.7 | –
Ab15-CZ (conjugate) VH: EVQLVESGGGLVQPGRSLKLSCAASGFTFSDYTMAWVRQAPKKGLEWVATIIYDGRGTYYRDSVKGRFTISRDNAKSTLYLQMDSLRSEDTATYYCARQSDGTYYYWGYFDYWGQGVMVTVSS VL: DIVMTQSPSSLAVSAGETVTINCKSSQSLLFSGNQKNYLAWYQQKPGQSPKLLIYWASTRQSGVPDRFIGSGSGTDFTLTIRSVQAEDLAIYYCQQYYDSPYTFGAGTKLELK | 1.06 | 0.076 | 5.7 | –
Ab11-CZ (conjugate) VH: EVQLVESGGGLVQPGRSLKLSCAASGFTFSDYAMAWVRQAPKKGLEWVAGIIYDGRGTYYRDSVKGRFTISRDNAKSTLYLQMDSLRSEDTATYYCARQGDGTYYYWGYFDYWGQGVMVTVSS VL: DIVMTQSPSSLAVSAGETVTINCRSSQSLLSSGNQKNYLAWYQQKPGQSPKLLIYWASTRQSGVPDRFIGSGSGTDFTLTISSVQAEDLAIYYCQQYYDTPYTFGAGTKLELK | 1.14 | 0.311 | 4.2 | –
ChAb15-CZ (conjugate) VH: EVQLVESGGGLVQPGRSLKLSCAASGFTFSDYTMAWVRQAPKKGLEWVATIIYDGRGTYYRDSVKGRFTISRDNAKSTLYLQMDSLRSEDTATYYCARQSDGTYYYWGYFDYWGQGVMVTVSS VL: DIVMTQSPSSLAVSAGETVTINCKSSQSLLFSGNQKNYLAWYQQKPGQSPKLLIYWASTRQSGVPDRFIGSGSGTDFTLTIRSVQAEDLAIYYCQQYYDSPYTFGAGTKLELK | – | – | – | Growth Inhibition TGImax [5]: 70* %; Response Frequency CR [5]: 0%; Response Frequency PR [5]: 0%; Tumor growth delay (TGD) [5]: 74* %; Response Frequency OR [5]: 0%
Ab12-CZ (conjugate) VH: EVQLVESGGGLVQPGRSLKLSCAASGFTFSDYAMAWVRQAPKKGLEWVASIIYDGRGTYYRDSVKGRFTISRDNAKSTLYLQMDSLRSEDTATYYCARQGDGTYYYWGSFDYWGQGVMVTVSS VL: DIVMTQSPSSLAVSAGETVTINCKSSQSLLSSGNQKNYLAWYQQKPGQSPKLLIYWASTRQSGVPDRFIGSGSGTDFTLTISSVQAEDLAIYHCQQYYDTPYTFGAGTKLELK | 0.685 | 0.094 | 2.9 | –
ChAb12-CZ (conjugate) VH: EVQLVESGGGLVQPGRSLKLSCAASGFTFSDYAMAWVRQAPKKGLEWVASIIYDGRGTYYRDSVKGRFTISRDNAKSTLYLQMDSLRSEDTATYYCARQGDGTYYYWGSFDYWGQGVMVTVSS VL: DIVMTQSPSSLAVSAGETVTINCKSSQSLLSSGNQKNYLAWYQQKPGQSPKLLIYWASTRQSGVPDRFIGSGSGTDFTLTISSVQAEDLAIYHCQQYYDTPYTFGAGTKLELK | – | – | – | Growth Inhibition TGImax [5]: 76* %; Response Frequency CR [5]: 0%; Response Frequency PR [5]: 25%; Tumor growth delay (TGD) [5]: 74* %; Response Frequency OR [5]: 25%
Ab14-CZ (conjugate) VH: EVKLQQSGDELVRPGASVKISCKASGYTFTSYSMHWVKERPGQGLEWIGAIFPIIGTTEYNQKFKGKATLTADKSSNTANMELSRLTSEDSAVYYCARVYLSYFDYWGQGVMVTVSS VL: DIQMTQSPSFLSASVGDRVTINCKASQNINKYLDWYQRKHGEAPKLLIYNTNNLQTGIPSRFSGSGSGTDYTLTISSLQPEDVATYFCLQHSSRYTFGAGTKLELK | 0.798 | 0.063 | 8.8 | –
Ab13-CZ (conjugate) VH: QVQLKESGPGLVQPSQTLSLTCTVSGFSLSSYGVIWVRQPPGKGLEWMGIIWANGNTNYNSALKSRLSISRDTSKSQVYLKMNSLQTEDTATYYCARHYYDGTHYYGYFDYWGQGVMVTVSS VL: DTVMTQTPSSQAVSAGEKVTMSCKSSQSLLYSENKKKYLAWYQQKPGQSPKLLIYWASTRESGVPDRFIGSGSGTDFTLTISSVQAEDLAVYYCQQYYNFPYTFGAGTKLELK | 0.787 | 0.149 | 4.7 | –
